B1: scFv-27B4-H3-L1 (scFv)
scFv: QVQLVQSGSELKKPGASVKVSCKASGYTFTTYWMNWVRQAPGQGLEWMGWIYPGDGGSTYAQGFTGRFVFSLDTSVSTAYLQICSLKAEDTAVYYCARGGNYISFPMYYWGQGTLVTVSSGGGGSGGGGSGGGGSGGGGASDIQMTQSPSSLSASMGDRVTITCKASRGVSTALNWYQQKPGKAPKLLIYWASSLQSGVPSRFSGSGSGTDFTLTISSLQPEDFATYYCQQHYDTPYTFGQGTKLEIK
notes: VH-linker-VL in phage display vector pXY, expressed in TG1, purified on a nickel column
B2: scFv-27B4-H3-L2 (scFv)
scFv: QVQLVQSGSELKKPGASVKVSCKASGYTFTTYWMNWVRQAPGQGLEWMGWIYPGDGGSTYAQGFTGRFVFSLDTSVSTAYLQICSLKAEDTAVYYCARGGNYISFPMYYWGQGTLVTVSSGGGGSGGGGSGGGGSGGGGASVIWMTQSPSLLSASTGDRVTISCKASRGVSTALAWYQQKPGKAPELLIYWASTLQSGVPSRFSGSGSGTDFTLTISCLQSEDFATYYCQQHYDTPYTFGQGTKLEIK
notes: as for B1
B3: scFv-27B4-H1-L5 (scFv)
scFv: QVQLVQSGAEVKKPGASVKVSCKASGYTFTTYWMHWVRQAPGQGLEWMGIIYPGDGGSSYAQKFQGRVTMTRDTSTSTVYMELSSLRSEDTAVYYCARGGNYISFPMYYWGQGTLVTVSSGGGGSGGGGSGGGGSGGGGASDIVMTQTPLSLSVTPGQPASISCKASRGVSTALYWYLQKPGQPPQLLIYWASNRFSGVPDRFSGSGSGTDFTLKISRVEAEDVGVYYCQQHYDTPYTFGQGTKLEIK
notes: as for B1
B4: scFv-27B4-H2-L5 (scFv)
scFv: QVQLVQSGAEVKKPGSSVKVSCKASGYTFTTYWISWVRQAPGQGLEWMGGIYPGDGGSNYAQKFQGRVTITADESTSTAYMELSSLRSEDTAVYYCARGGNYISFPMYYWGQGTLVTVSSGGGGSGGGGSGGGGSGGGGASDIVMTQTPLSLSVTPGQPASISCKASRGVSTALYWYLQKPGQPPQLLIYWASNRFSGVPDRFSGSGSGTDFTLKISRVEAEDVGVYYCQQHYDTPYTFGQGTKLEIK
notes: as for B1
B5: scFv-27B4-H2-L2 (scFv)
scFv: QVQLVQSGAEVKKPGSSVKVSCKASGYTFTTYWISWVRQAPGQGLEWMGGIYPGDGGSNYAQKFQGRVTITADESTSTAYMELSSLRSEDTAVYYCARGGNYISFPMYYWGQGTLVTVSSGGGGSGGGGSGGGGSGGGGASVIWMTQSPSLLSASTGDRVTISCKASRGVSTALAWYQQKPGKAPELLIYWASTLQSGVPSRFSGSGSGTDFTLTISCLQSEDFATYYCQQHYDTPYTFGQGTKLEIK
notes: Expressed from phage display vector pXY in TG1, purified on a nickel column
B6: scFv-27B4-H3-L5 (scFv)
scFv: QVQLVQSGSELKKPGASVKVSCKASGYTFTTYWMNWVRQAPGQGLEWMGWIYPGDGGSTYAQGFTGRFVFSLDTSVSTAYLQICSLKAEDTAVYYCARGGNYISFPMYYWGQGTLVTVSSGGGGSGGGGSGGGGSGGGGASDIVMTQTPLSLSVTPGQPASISCKASRGVSTALYWYLQKPGQPPQLLIYWASNRFSGVPDRFSGSGSGTDFTLKISRVEAEDVGVYYCQQHYDTPYTFGQGTKLEIK
notes: as for B1
B7: scFv-27B4-H3-L4 (scFv)
scFv: QVQLVQSGSELKKPGASVKVSCKASGYTFTTYWMNWVRQAPGQGLEWMGWIYPGDGGSTYAQGFTGRFVFSLDTSVSTAYLQICSLKAEDTAVYYCARGGNYISFPMYYWGQGTLVTVSSGGGGSGGGGSGGGGSGGGGASEIVLTQSPDFQSVTPKEKVTITCKASRGVSTALHWYQQKPDQSPKLLIKWASQSFSGVPSRFSGSGSGTDFTLTINSLEAEDAATYYCQQHYDTPYTFGQGTKLEIK
notes: as for B1
B8: scFv-27B4-H4-L1 (scFv)
scFv: EVQLVQSGAEVKKPGESLKISCKASGYTFTTYWIGWVRQMPGKGLEWMGIIYPGDGGSRYSPSFQGQVTISADKSISTAYLQWSSLKASDTAMYYCARGGNYISFPMYYWGQGTLVTVSSGGGGSGGGGSGGGGSGGGGASDIQMTQSPSSLSASMGDRVTITCKASRGVSTALNWYQQKPGKAPKLLIYWASSLQSGVPSRFSGSGSGTDFTLTISSLQPEDFATYYCQQHYDTPYTFGQGTKLEIK
notes: as for B1
B9: scFv-27B4-H4-L2 (scFv)
scFv: EVQLVQSGAEVKKPGESLKISCKASGYTFTTYWIGWVRQMPGKGLEWMGIIYPGDGGSRYSPSFQGQVTISADKSISTAYLQWSSLKASDTAMYYCARGGNYISFPMYYWGQGTLVTVSSGGGGSGGGGSGGGGSGGGGASVIWMTQSPSLLSASTGDRVTISCKASRGVSTALAWYQQKPGKAPELLIYWASTLQSGVPSRFSGSGSGTDFTLTISCLQSEDFATYYCQQHYDTPYTFGQGTKLEIK
notes: as for B5
B10: scFv-27B4-H1-L1 (scFv)
scFv: QVQLVQSGAEVKKPGASVKVSCKASGYTFTTYWMHWVRQAPGQGLEWMGIIYPGDGGSSYAQKFQGRVTMTRDTSTSTVYMELSSLRSEDTAVYYCARGGNYISFPMYYWGQGTLVTVSSGGGGSGGGGSGGGGSGGGGASDIQMTQSPSSLSASMGDRVTITCKASRGVSTALNWYQQKPGKAPKLLIYWASSLQSGVPSRFSGSGSGTDFTLTISSLQPEDFATYYCQQHYDTPYTFGQGTKLEIK
notes: as for B1
B11: scFv-27B4-H2-L1 (scFv)
scFv: QVQLVQSGAEVKKPGSSVKVSCKASGYTFTTYWISWVRQAPGQGLEWMGGIYPGDGGSNYAQKFQGRVTITADESTSTAYMELSSLRSEDTAVYYCARGGNYISFPMYYWGQGTLVTVSSGGGGSGGGGSGGGGSGGGGASDIQMTQSPSSLSASMGDRVTITCKASRGVSTALNWYQQKPGKAPKLLIYWASSLQSGVPSRFSGSGSGTDFTLTISSLQPEDFATYYCQQHYDTPYTFGQGTKLEIK
notes: as for B1
B12: scFv-27B4-H1-L2 (scFv)
scFv: QVQLVQSGAEVKKPGASVKVSCKASGYTFTTYWMHWVRQAPGQGLEWMGIIYPGDGGSSYAQKFQGRVTMTRDTSTSTVYMELSSLRSEDTAVYYCARGGNYISFPMYYWGQGTLVTVSSGGGGSGGGGSGGGGSGGGGASVIWMTQSPSLLSASTGDRVTISCKASRGVSTALAWYQQKPGKAPELLIYWASTLQSGVPSRFSGSGSGTDFTLTISCLQSEDFATYYCQQHYDTPYTFGQGTKLEIK
notes: as for B1
B13: scFv-27B4-H1-L3 (scFv)
scFv: QVQLVQSGAEVKKPGASVKVSCKASGYTFTTYWMHWVRQAPGQGLEWMGIIYPGDGGSSYAQKFQGRVTMTRDTSTSTVYMELSSLRSEDTAVYYCARGGNYISFPMYYWGQGTLVTVSSGGGGSGGGGSGGGGSGGGGASEIVMTQSPATLSVSPGERATLSCKASRGVSTALAWYQQKPGQAPRLLIYWASTRATGIPARFSGSGSGTEFTLTISSLQSEDFAVYYCQQHYDTPYTFGQGTKLEIK
notes: as for B1
B14: scFv-27B4-H2-L3 (scFv)
scFv: QVQLVQSGAEVKKPGSSVKVSCKASGYTFTTYWISWVRQAPGQGLEWMGGIYPGDGGSNYAQKFQGRVTITADESTSTAYMELSSLRSEDTAVYYCARGGNYISFPMYYWGQGTLVTVSSGGGGSGGGGSGGGGSGGGGASEIVMTQSPATLSVSPGERATLSCKASRGVSTALAWYQQKPGQAPRLLIYWASTRATGIPARFSGSGSGTEFTLTISSLQSEDFAVYYCQQHYDTPYTFGQGTKLEIK
notes: as for B5
B15: scFv-27B4-H3-L3 (scFv)
scFv: QVQLVQSGSELKKPGASVKVSCKASGYTFTTYWMNWVRQAPGQGLEWMGWIYPGDGGSTYAQGFTGRFVFSLDTSVSTAYLQICSLKAEDTAVYYCARGGNYISFPMYYWGQGTLVTVSSGGGGSGGGGSGGGGSGGGGASEIVMTQSPATLSVSPGERATLSCKASRGVSTALAWYQQKPGQAPRLLIYWASTRATGIPARFSGSGSGTEFTLTISSLQSEDFAVYYCQQHYDTPYTFGQGTKLEIK
notes: as for B1
B16: scFv-27B4-H1-L4 (scFv)
scFv: QVQLVQSGAEVKKPGASVKVSCKASGYTFTTYWMHWVRQAPGQGLEWMGIIYPGDGGSSYAQKFQGRVTMTRDTSTSTVYMELSSLRSEDTAVYYCARGGNYISFPMYYWGQGTLVTVSSGGGGSGGGGSGGGGSGGGGASEIVLTQSPDFQSVTPKEKVTITCKASRGVSTALHWYQQKPDQSPKLLIKWASQSFSGVPSRFSGSGSGTDFTLTINSLEAEDAATYYCQQHYDTPYTFGQGTKLEIK
notes: as for B1
B17: scFv-27B4-H2-L4 (scFv)
scFv: QVQLVQSGAEVKKPGSSVKVSCKASGYTFTTYWISWVRQAPGQGLEWMGGIYPGDGGSNYAQKFQGRVTITADESTSTAYMELSSLRSEDTAVYYCARGGNYISFPMYYWGQGTLVTVSSGGGGSGGGGSGGGGSGGGGASEIVLTQSPDFQSVTPKEKVTITCKASRGVSTALHWYQQKPDQSPKLLIKWASQSFSGVPSRFSGSGSGTDFTLTINSLEAEDAATYYCQQHYDTPYTFGQGTKLEIK
notes: as for B1

What was measured:
[1] = molecular target: T1, B7-H3 (4Ig-B7-H3) endogenously expressed on MDA-MB-231 cells (UniProt Q5ZPR3 29-534, limits assumed); experiment: FACS, MDA-MB-231 cells
T1 construct: whole, on cells; also called 细胞表面的B7-H3抗原
T1 sequence (looked up): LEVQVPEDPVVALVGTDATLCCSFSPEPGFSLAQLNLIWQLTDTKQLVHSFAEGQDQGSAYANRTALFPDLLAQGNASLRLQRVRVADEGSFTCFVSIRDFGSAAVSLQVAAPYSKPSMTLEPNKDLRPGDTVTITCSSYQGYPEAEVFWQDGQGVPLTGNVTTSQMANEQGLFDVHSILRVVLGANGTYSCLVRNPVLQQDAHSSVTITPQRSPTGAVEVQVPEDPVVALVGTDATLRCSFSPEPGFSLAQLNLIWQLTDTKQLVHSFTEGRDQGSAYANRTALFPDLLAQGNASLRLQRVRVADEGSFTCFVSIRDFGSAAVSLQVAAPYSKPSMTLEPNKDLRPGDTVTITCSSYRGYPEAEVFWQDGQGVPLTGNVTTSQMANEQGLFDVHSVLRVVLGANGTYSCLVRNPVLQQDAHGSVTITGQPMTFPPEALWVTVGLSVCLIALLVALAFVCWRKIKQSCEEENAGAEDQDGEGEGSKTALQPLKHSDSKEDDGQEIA

[2] = molecular target: T2, 人B7-H3变体1(4Ig-B7-H3) on stable cells 293-h4Ig-B7-H3-copGFP (human, UniProt Q5ZPR3 29-534); experiment: FACS, 293-h4Ig-B7-H3-copGFP stable cells
T2 construct: Full-length CDS cloned in pCDH-EF1-T2A-copGFP and expressed on stably transduced cells; residues left by T2A cleavage not described
T2 sequence: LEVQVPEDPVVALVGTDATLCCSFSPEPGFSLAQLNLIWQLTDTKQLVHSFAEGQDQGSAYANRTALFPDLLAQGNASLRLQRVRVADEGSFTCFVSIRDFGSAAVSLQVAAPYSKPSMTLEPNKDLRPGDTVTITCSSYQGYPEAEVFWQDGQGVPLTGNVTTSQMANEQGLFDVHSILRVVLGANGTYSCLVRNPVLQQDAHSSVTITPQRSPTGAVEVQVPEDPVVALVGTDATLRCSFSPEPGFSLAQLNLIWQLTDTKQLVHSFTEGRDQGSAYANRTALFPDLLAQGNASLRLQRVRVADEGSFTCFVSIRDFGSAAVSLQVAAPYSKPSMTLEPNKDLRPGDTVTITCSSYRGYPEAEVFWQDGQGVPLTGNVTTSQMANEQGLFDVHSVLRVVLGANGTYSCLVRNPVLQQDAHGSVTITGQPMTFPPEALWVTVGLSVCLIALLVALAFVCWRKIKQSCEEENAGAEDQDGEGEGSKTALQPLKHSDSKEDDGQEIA

Binder	binding result [1]	binding result [2]
B1	binds	binds
B2	binds	binds
B3	binds	binds
B4	binds	binds
B5	binds	binds
B6	binds	binds
B7	binds	binds
B8	binds	binds
B9	binds	binds
B10	binds	binds
B11	binds	binds
B12	binds	binds
B13	binds	binds
B14	binds	binds
B15	binds	binds
B16	binds	binds
B17	binds	binds

— patent CN113683697A (SHANGHAI XIANGYAO BIOTECHNOLOGY CO LTD, dated 2021)
